{"source": "the supplement of paper PMC11316812", "key": {"hTERT-HMEC": {"system": "hTERT-HMEC", "test": "percentage of EdU-negative (G0-arrested) nuclei per well, 72 h; higher = more G0 arrest", "conditions": "reference: sequence is the full UniProt precursor, the tested protein was the secreted form or ectodomain"}, "MCF7": {"system": "MCF7", "test": "percentage of EdU-negative (G0-arrested) nuclei per well, 72 h; higher = more G0 arrest", "conditions": "reference: sequence is the full UniProt precursor, the tested protein was the secreted form or ectodomain"}, "[1]": {"conditions": "protein concentration 0.03125 µM"}, "[2]": {"conditions": "protein concentration 0.3125 µM"}, "[3]": {"conditions": "protein concentration 0.0225 µM"}, "[4]": {"conditions": "protein concentration 0.02175 µM"}, "[5]": {"conditions": "protein concentration 0.2175 µM"}, "[6]": {"conditions": "protein concentration 0.00875 µM"}, "[7]": {"conditions": "protein concentration 0.0875 µM"}, "[8]": {"conditions": "protein concentration 0.01925 µM"}, "[9]": {"conditions": "protein concentration 0.1925 µM"}}, "note": "± gives the standard deviation of the averaged measurements.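 Also: secreted proteins added to cultured cells, EdU pulse at the end, nuclei found by Hoechst imaging, EdU status from nuclear versus surrounding ring intensity ratio, PBS as neutral control.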", "data": [{"sequence": "MALSFSLLMAVLVLSYKSICSLGCDLPQTHSLGNRRALILLAQMGRISPFSCLKDRHDFGFPQEEFDGNQFQKAQAISVLHEMIQQTFNLFSTKDSSATWEQSLLEKFSTELNQQLNDLEACVIQEVGVEETPLMNVDSILAVKKYFQRITLYLTEKKYSPCAWEVVRAEIMRSFSLSKIFQERLRRKE", "values": [{"measurement": "percentage of EdU-negative", "setting": "hTERT-HMEC; [1]", "result": "15.2 ± 2.2", "unit": "%"}, {"measurement": "percentage of EdU-negative", "setting": "hTERT-HMEC; [2]", "result": "17.64 ± 0.089", "unit": "%"}, {"measurement": "percentage of EdU-negative", "setting": "MCF7; [1]", "result": "46.7 ± 0.98", "unit": "%"}, {"measurement": "percentage of EdU-negative", "setting": "MCF7; [2]", "result": "47.89 ± 0.27", "unit": "%"}]}, {"sequence": "MALSWVLTVLSLLPLLEAQIPLCANLVPVPITNATLDRITGKWFYIASAFRNEEYNKSVQEIQATFFYFTPNKTEDTIFLREYQTRQNQCFYNSSYLNVQRENGTVSRYEGGREHVAHLLFLRDTKTLMFGSYLDDEKNWGLSFYADKPETTKEQLGEFYEALDCLCIPRSDVMYTDWKKDKCEPLEKQHEKERKQEEGES", "values": [{"measurement": "percentage of EdU-negative", "setting": "hTERT-HMEC; [3]", "result": "4.9 ± 0.092", "unit": "%"}, {"measurement": "percentage of EdU-negative", "setting": "hTERT-HMEC; protein concentration 0.225 µM", "result": "5.06 ± 0.15", "unit": "%"}, {"measurement": "percentage of EdU-negative", "setting": "MCF7; [3]", "result": "25.4 ± 2.9", "unit": "%"}, {"measurement": "percentage of EdU-negative", "setting": "MCF7; protein concentration 0.225 µM", "result": "25.1 ± 3.5", "unit": "%"}]}, {"sequence": "MALTAHPSCLLALLVAGLAQGIRGPLRAQDLGPQPLELKEAFKLFQIQFNRSYLSPEEHAHRLDIFAHNLAQAQRLQEEDLGTAEFGVTPFSDLTEEEFGQLYGYRRAAGGVPSMGREIRSEEPEESVPFSCDWRKVASAISPIKDQKNCNCCWAMAAAGNIETLWRISFWDFVDVSVQELLDCGRCGDGCHGGFVWDAFITVLNNSGLASEKDYPFQGKVRAHRCHPKKYQKVAWIQDFIMLQNNEHRIAQYLATYGPITVTINMKPLQLYRKGVIKATPTTCDPQLVDHSVLLVGFGSVKSEEGIWAETVSSQSQPQPPHPTPYWILKNSWGAQWGEKGYFRLHRGSNTCGITKFPLTARVQKPDMKPRVSCPP", "values": [{"measurement": "percentage of EdU-negative", "setting": "hTERT-HMEC; [3]", "result": "4.63 ± 1.3", "unit": "%"}, {"measurement": "percentage of EdU-negative", "setting": "hTERT-HMEC; protein concentration 0.225 µM", "result": "48.2 ± 4", "unit": "%"}, {"measurement": "percentage of EdU-negative", "setting": "MCF7; [3]", "result": "23.2 ± 3.5", "unit": "%"}, {"measurement": "percentage of EdU-negative", "setting": "MCF7; protein concentration 0.225 µM", "result": "32.1 ± 4.7", "unit": "%"}]}, {"sequence": "MALTGYSWLLLSATFLNVGAEISITLEPAQPSEGDNVTLVVHGLSGELLAYSWYAGPTLSVSYLVASYIVSTGDETPGPAHTGREAVRPDGSLDIQGILPRHSGTYILQTFNRQLQTEVGYGHVQVHEILAQPTVLANSTALVERRDTLRLMCSSPSPTAEVRWFFNGGALPVALRLGLSPDGRVLARHGIRREEAGAYQCEVWNPVSVSRSEPINLTVYFGPERVAILQDSTTRTGCTIKVDFNTSLTLWCVSRSCPEPEYVWTFNGQALKNGQDHLNISSMTAAQEGTYTCIAKNTKTLLSGSASVVVKLSAAAVATMIVPVPTKPTEGQDVTLTVQGYPKDLLVYAWYRGPASEPNRLLSQLPSGTWIAGPAHTGREVGFPNCSLLVQKLNLTDTGRYTLKTVTVQGKTETLEVELQVAPLG [Q2WEN9]", "values": [{"measurement": "percentage of EdU-negative", "setting": "hTERT-HMEC; [4]", "result": "5.23 ± 0.14", "unit": "%"}, {"measurement": "percentage of EdU-negative", "setting": "hTERT-HMEC; [5]", "result": "7.63 ± 2.6", "unit": "%"}, {"measurement": "percentage of EdU-negative", "setting": "MCF7; [4]", "result": "26.4 ± 2", "unit": "%"}, {"measurement": "percentage of EdU-negative", "setting": "MCF7; [5]", "result": "27.5 ± 2.3", "unit": "%"}]}, {"sequence": "MALTLFDTDEYRPPVWKSYLYQLQQEAPHPRRITCTCEVENRPKYYGREFHGMISREAADQLLIVAEGSYLIRESQRQPGTYTLALRFGSQTRNFRLYYDGKHFVGEKRFESIHDLVTDGLITLYIETKAAEYIAKMTINPIYEHVGYTTLNREPAYKKHMPVLKETHDERDSTGQDGVSEKRLTSLVRRATLKENEQIPKYEKIHNFKVHTFRGPHWCEYCANFMWGLIAQGVKCADCGLNVHKQCSKMVPNDCKPDLKHVKKVYSCDLTTLVKAHTTKRPMVVDMCIREIESRGLNSEGLYRVSGFSDLIEDVKMAFDRDGEKADISVNMYEDINIITGALKLYFRDLPIPLITYDAYPKFIESAKIMDPDEQLETLHEALKLLPPAHCETLRYLMAHLKRVTLHEKENLMNAENLGIVFGPTLMRSPELDAMAALNDIRYQRLVVELLIKNEDILF [B8ZZ96]", "values": [{"measurement": "percentage of EdU-negative", "setting": "hTERT-HMEC; [6]", "result": "4.91 ± 0.4", "unit": "%"}, {"measurement": "percentage of EdU-negative", "setting": "hTERT-HMEC; [7]", "result": "6.84 ± 1.4", "unit": "%"}, {"measurement": "percentage of EdU-negative", "setting": "MCF7; [6]", "result": "25.94 ± 0.25", "unit": "%"}, {"measurement": "percentage of EdU-negative", "setting": "MCF7; [7]", "result": "26.7 ± 0.53", "unit": "%"}]}, {"sequence": "MALVRALVCCLLTAWHCRSGLGLPVAPAGGRNPPPAIGQFWHVTDLHLDPTYHITDDHTKVCASSKGANASNPGPFGDVLCDSPYQLILSAFDFIKNSGQEASFMIWTGDSPPHVPVPELSTDTVINVITNMTTTIQSLFPNLQVFPALGNHDYWPQDQLPVVTSKVYNAVANLWKPWLDEEAISTLRKGGFYSQKVTTNPNLRIISLNTNLYYGPNIMTLNKTDPANQFEWLESTLNNSQQNKEKVYIIAHVPVGYLPSSQNITAMREYYNEKLIDIFQKYSDVIAGQFYGHTHRDSIMVLSDKKGSPVNSLFVAPAVTPVKSVLEKQTNNPGIRLFQYDPRDYKLLDMLQYYLNLTEANLKGESIWKLEYILTQTYDIEDLQPESLYGLAKQFTILDSKQFIKYYNYFFVSYDSSVTCDKTCKAFQICAIMNLDNISYADCLKQLYIKHNY", "values": [{"measurement": "percentage of EdU-negative", "setting": "hTERT-HMEC; [8]", "result": "4.69 ± 0.32", "unit": "%"}, {"measurement": "percentage of EdU-negative", "setting": "hTERT-HMEC; [9]", "result": "15.5 ± 1.9", "unit": "%"}, {"measurement": "percentage of EdU-negative", "setting": "MCF7; [8]", "result": "26.4 ± 2.1", "unit": "%"}, {"measurement": "percentage of EdU-negative", "setting": "MCF7; [9]", "result": "28.3 ± 3.7", "unit": "%"}]}, {"sequence": "MALWRGSAYAGFLALAVGCVFLLEPELPGSALRSLWSSLCLGPAPAPPGPVSPEGRLAAAWDALIVRPVRRWRRVAVGVNACVDVVLSGVKLLQALGLSPGNGKDHSILHSRNDLEEAFIHFMGKGAAAERFFSDKETFHDIAQVASEFPGAQHYVGGNAALIGQKFAANSDLKVLLCGPVGPKLHELLDDNVFVPPESLQEVDEFHLILEYQAGEEWGQLKAPHANRFIFSHDLSNGAMNMLEVFVSSLEEFQPDLVVLSGLHMMEGQSKELQRKRLLEVVTSISDIPTGIPVHLELASMTNRELMSSIVHQQVFPAVTSLGLNEQELLFLTQSASGPHSSLSSWNGVPDVGMVSDILFWILKEHGRSKSRASDLTRIHFHTLVYHILATVDGHWANQLAAVAAGARVAGTQACATETIDTSRVSLRAPQEFMTSHSEAGSRIVLNPNKPVVEWHREGISFHFTPVLVCKDPIRTVGLGDAISAEGLFYSEVHPHY [Q9BRR6]", "values": [{"measurement": "percentage of EdU-negative", "setting": "hTERT-HMEC; [3]", "result": "4.76 ± 0.58", "unit": "%"}, {"measurement": "percentage of EdU-negative", "setting": "hTERT-HMEC; protein concentration 0.225 µM", "result": "5.82 ± 0.78", "unit": "%"}, {"measurement": "percentage of EdU-negative", "setting": "MCF7; [3]", "result": "24.8 ± 1", "unit": "%"}, {"measurement": "percentage of EdU-negative", "setting": "MCF7; protein concentration 0.225 µM", "result": "24 ± 2.1", "unit": "%"}]}]}
